The target in experiment [1] is T1, human CD3 expressed on cells (human, UniProt P07766 23-207; P04234 22-171; P09693 23-182).
T1 construct: whole, on cells; CD3 complex on Jurkat cells and on human primary T cells
The experiment in a line: flow cytometry, 25 nM, Jurkat cells (human primary T cells in c4 also <10). On the procedure: Purified antibodies were confirmed to bind CD3 expressed on cells using the CytoFLEX S or LX flow cytometers (Beckman Coulter). Antibodies were diluted to 25 nM in FACS buffer (PBS+2% FBS) and were incubated with CD3-expressing cells for 30 minutes at 4° C. […] The median fluorescence intensity of the binding signal for each antibody was normalized to the isotype control to obtain a fold over isotype value. An antibody with a fold over isotype (FOI) of ≥10 was considered to be positive for binding.

In experiment [2] the target is T1, human CD3 expressed on cells. Nature of the experiment: flow cytometry, 25 nM. An outline of the steps: (§1)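 Values are fold over isotype: median fluorescence intensity of each antibody relative to isotype control after a 30-minute, 4° C incubation at 25 nM with CD3-bearing cells in PBS containing 2% FBS.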
In experiment [3] the target is T2, cynomolgus monkey CD3 expressed on primary T cells (cynomolgus monkey, UniProt Q95LI5 22-198; Q95LI8 22-171; Q95LI7 23-181).
T2 construct: whole, on cells; CD3 complex on purified cynomolgus monkey T cells; also called cyno CD3
T2 sequence (Q95LI5 22-198, chain 1 of 3): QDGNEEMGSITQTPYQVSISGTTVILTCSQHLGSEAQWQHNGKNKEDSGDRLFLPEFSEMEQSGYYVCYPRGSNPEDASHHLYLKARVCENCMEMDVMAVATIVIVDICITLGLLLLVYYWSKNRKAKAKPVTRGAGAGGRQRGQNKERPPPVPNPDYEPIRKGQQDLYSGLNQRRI
T2 sequence (Q95LI8 22-171, chain 2 of 3): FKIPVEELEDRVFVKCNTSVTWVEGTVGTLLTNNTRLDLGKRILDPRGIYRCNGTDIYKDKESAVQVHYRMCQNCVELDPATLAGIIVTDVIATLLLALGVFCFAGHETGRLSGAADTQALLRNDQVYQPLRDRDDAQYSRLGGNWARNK
T2 sequence (Q95LI7 23-181, chain 3 of 3): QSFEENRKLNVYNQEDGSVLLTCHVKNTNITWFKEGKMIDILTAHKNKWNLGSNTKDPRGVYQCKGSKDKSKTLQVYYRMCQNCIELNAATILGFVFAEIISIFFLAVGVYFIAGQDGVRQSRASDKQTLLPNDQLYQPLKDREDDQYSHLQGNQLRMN
Nature of the experiment: flow cytometry, 25 nM, cyno primary T cells. An outline of the steps:
as §1
A general note: Flow cytometry measures light scatter and fluorescence of single cells or particles in a stream.

Another experiment has as its target T3, cynomolgus monkey CD3 (cynomolgus monkey, UniProt Q95LI5 22-198; Q95LI8 22-171; Q95LI7 23-181).
T3 construct: whole, on cells; CD3 on purified cynomolgus monkey CD3 pan T cells; also called cyno CD3; CD3 on cyno primary T cells
Nature of the experiment: flow cytometry, cyno primary T cells. An outline of the steps:
as §1

Numbering of substitutions follows the chain as printed.

T1 sequence (P07766 23-207, chain 1 of 3): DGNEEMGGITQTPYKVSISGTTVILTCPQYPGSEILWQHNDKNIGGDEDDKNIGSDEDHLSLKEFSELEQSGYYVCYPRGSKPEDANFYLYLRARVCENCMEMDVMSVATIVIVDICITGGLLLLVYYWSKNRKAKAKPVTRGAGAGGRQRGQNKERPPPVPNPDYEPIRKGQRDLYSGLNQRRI
T1 sequence (P04234 22-171, chain 2 of 3): as the sequence (Q95LI8 22-171, chain 2 of 3) above, with V5I, K15N, V20I, T32S, N33D, N34I, A64T, N74S, L83V, R141H counted along it
T1 sequence (P09693 23-182, chain 3 of 3): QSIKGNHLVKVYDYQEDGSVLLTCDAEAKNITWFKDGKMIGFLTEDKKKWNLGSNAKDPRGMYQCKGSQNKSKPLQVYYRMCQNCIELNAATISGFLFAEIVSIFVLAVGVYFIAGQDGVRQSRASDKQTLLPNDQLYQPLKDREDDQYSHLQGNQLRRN
T3 sequence (Q95LI5 22-198, chain 1 of 3): as the sequence (Q95LI5 22-198, chain 1 of 3) above
T3 sequence (Q95LI8 22-171, chain 2 of 3): as the sequence (Q95LI8 22-171, chain 2 of 3) above
T3 sequence (Q95LI7 23-181, chain 3 of 3): as the sequence (Q95LI7 23-181, chain 3 of 3) above

B1: mAb 48 (antibody, V domains shown)
VH: QVQLVQSGAEVKKPGASVKVSCKASGYTFTGYYIHWVRQAPGQGLEWMGWINPKSGNRNYAQKFQGRVTMTRDTSIDTAYMELTRLRSDDTAVYYCARIEQLVFDYWGQGTLVTVSS
VL: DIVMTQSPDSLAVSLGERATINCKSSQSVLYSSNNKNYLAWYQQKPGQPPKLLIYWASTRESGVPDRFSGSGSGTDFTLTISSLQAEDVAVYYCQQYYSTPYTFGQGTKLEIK
With B1, the binding result in experiment [1] and in experiment [3] was “no binding (tested: FOI >=10 = positive)” throughout. Moreover, in experiment [2], the “Human primary T Cell Binding (FOI)” value came out at 1.3 FOI.

B2: mAb 91 (antibody, V domains shown)
VH: B1 VH with R58T, N59V, K63R, D77S, E82D, T84S, R87K, I99L, T111A
VL: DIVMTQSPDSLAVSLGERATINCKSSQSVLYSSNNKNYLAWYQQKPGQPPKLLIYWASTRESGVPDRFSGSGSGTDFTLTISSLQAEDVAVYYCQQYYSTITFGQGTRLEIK
Take B2: the binding result in experiment [1] and in experiment [3] was “no binding (tested: FOI >=10 = positive)” each time. In experiment [2], the “Human primary T Cell Binding (FOI)” value worked out at 0.746 FOI.

B3: mAb 105 (antibody, V domains shown)
VH: QVQLQESGPGLVKPSATLSLTCTVSGGSISTYYWSWIRQSPGKGLEWIGYISYSVNTNPSLKSRVTISVDKSKNQLSLNLRSATGADTAVYYCARGGLYGGNAGRFDLWGQGTLVTVSS
VL: EIVLTQSPGTLSLSPGERATLSCRASQSVINNYVAWYQQKPGQAPSLIITGVSRRATGIPDRFIGSGSGTDFILIISRLEPEDFAVYCCQQYGNSPWTFGQGTRVEIK
As for B3, the binding result in experiment [1] and in experiment [3] was “no binding (tested: FOI >=10 = positive)” each time. Further, the “Human primary T Cell Binding (FOI)” value in experiment [2] was determined as 0.842 FOI.

B4: mAb 76 (antibody, V domains shown)
VH: QVHLVQSGAEVKKPGASVKVSCKASGHTFTGFYVHWARQAPGQGLEWMGWIYSNSGRTSYSQKFQGRVAMTRDTSISTIYMDLSRLRSDDTAVYYCARLEQLVFDFWGQGTLVTVSS
VL: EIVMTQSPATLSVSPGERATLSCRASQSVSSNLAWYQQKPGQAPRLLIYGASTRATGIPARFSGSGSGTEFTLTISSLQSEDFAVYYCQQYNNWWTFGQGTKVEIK
As for B4, the binding result in experiment [1] and in experiment [3] was “no binding (tested: FOI >=10 = positive)” in each case. Besides, the “Human primary T Cell Binding (FOI)” value in experiment [2] turned out to be 0.921 FOI.

B5: mAb 84 (antibody, V domains shown)
VH: B4 VH with T28S, F32Y, S61A, A69T, I79T, D82E, E100D, F106Y
VL: not shown
In the case of B5, the binding result in experiment [1] and in experiment [3] was “no binding (tested: FOI >=10 = positive)” throughout. The “Human primary T Cell Binding (FOI)” value in experiment [2] stood at 0.805 FOI.

B6: mAb 82 (antibody, V domains shown)
VH: B4 VH with F32Y
VL: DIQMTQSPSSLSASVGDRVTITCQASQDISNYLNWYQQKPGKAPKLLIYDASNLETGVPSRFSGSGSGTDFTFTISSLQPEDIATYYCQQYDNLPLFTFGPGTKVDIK
As for B6, the binding result in experiment [1] and in experiment [3] was “no binding (tested: FOI >=10 = positive)” in each case. The “Human primary T Cell Binding (FOI)” value in experiment [2] worked out at 0.954 FOI.

B7: mAb 88 (antibody, V domains shown)
VH: B4 VH with F32Y, S77N
VL: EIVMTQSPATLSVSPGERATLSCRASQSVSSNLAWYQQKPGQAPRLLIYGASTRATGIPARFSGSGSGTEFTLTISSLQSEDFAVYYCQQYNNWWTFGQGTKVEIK
Take B7: the binding result in experiment [1] and in experiment [3] was “no binding (tested: FOI >=10 = positive)” throughout. Further, in experiment [2], the “Human primary T Cell Binding (FOI)” value was 0.885 FOI.

B8: mAb 45 (antibody, V domains shown)
VH: QAQLVQSGSELKKPGASVKVSCKASGYTFTKHSMNWVRQAPGQGLEWMGWINTNTGNPMYGQGFTGRFVFSLDTSMTTTYLQISSLKAEDTAIYYCAREGDYDLWRGFFNFDYWGQGTLVTVSS
VL: DIQMTQSPSSLSASVGDRVTITCRASQGIRNDLGWYQQKPGKAPKRLIYAASSLQSGVPSRFSGSGSGAEFTLTISSLQPEDFATYYCLQHNSYPRTFGQGTKVEIK
In the case of B8, the binding result in experiment [1] and in experiment [3] was “no binding (tested: FOI >=10 = positive)” in each case. Besides, the “Human primary T Cell Binding (FOI)” value in experiment [2] turned out to be 0.891 FOI.

B9: mAb 64 (antibody, V domains shown)
VH: QVQLMPSGAEVKEPGASVKVSCKASGYTFTGYYMHWVRQAPGQGLEWMGWINPNSGRTSYAKNFQGRVTMTRDTSISTAYMELSRLRSDDTAVYYCARIEQLVFDYWGQGTLVTVSS
VL: not shown
For the molecule B9, the binding result in experiment [1] and in experiment [3] was “no binding (tested: FOI >=10 = positive)” throughout. Further, the “Human primary T Cell Binding (FOI)” value in experiment [2] stood at 0.816 FOI.

B10: mAb 80 (antibody, V domains shown)
VH: QVQLVQSGAEVKKPGASVKVSCKASGYTFAGYYLHWVRQAPGQGLEWMGWINPNSGRTESAQKFQGRVTLTRDTSITTAYMALSRLRSDDTAIYYCTRLEQLVFDYWGQGTLVTVSS
VL: EIVLTQSPDFQSVTPKEKVTITCRASQSIGSSLHWYQQKPDQSPKLLIKYASQSFSGVPSRFSGSGSGTDFTLTINSLEAEDAATYYCHQSSSLPTFGQGTKVEIK
In the case of B10, the binding result in experiment [1] and in experiment [3] was “no binding (tested: FOI >=10 = positive)” throughout. The “Human primary T Cell Binding (FOI)” value in experiment [2] was 0.905 FOI.

B11: mAb 89 (antibody, V domains shown)
VH: B10 VH
VL: DIQMTQSPSSLSASVGDRVTITCRASQGISNYLAWFQQKPGKAPKSLIYAASSLQSGVPSKFSGSGSGTDFTLTISSLQPEDFATYYCQQYNSYPITFGQGTRLEIK
On to B11, for which the binding result in experiment [1] and in experiment [3] was “no binding (tested: FOI >=10 = positive)” each time. Moreover, the “Human primary T Cell Binding (FOI)” value in experiment [2] is 0.594 FOI.

B12: mAb 321 (antibody, V domains shown)
VH: QVQLVESGGGVVQPGRSLRLSCVASGFTFRSFGMHWVRQAPGKGLEWVVVISNDGSHKYYVESVKGRFTISRDNSKNTLYLQMNSLRPEDTAVYYCARRDYYGSGMDVWGKGTTVTVSS
VL: SYELTQPPSVSVSPGQTARITCSGDALPKKYAYWYQQKSGQAPVLVIYEDRKRPSGIPERFSGSSSGTMATLTISGAQVEDEADYYCYSTDSSGNHAVFGGGTQLTAL
notes: VH and VL only
For the molecule B12, the binding result with cynomolgus monkey CD3 is “no binding (tested: FOI ≥10 = positive; 25 nM)”.

B13: mAb 322 (antibody, V domains shown)
VH: B12 VH with F32Y, P88A
VL: B12 VL
notes: VH and VL only
In the case of B13, in the experiment with cynomolgus monkey CD3, the binding result is reported as “no binding (tested: FOI ≥10 = positive; 25 nM)”.

B14: mAb 75 (antibody, V domains shown)
VH: QVQLVQSGAEVKKPGASVRVSCKASGYTFTGNYIHWVRLAPGQGLEWMGWINPKSGRTQFVQKFQGRVTMTRDTSITTVYMELSRLRSDDTAVYYCARLGDLLNFDYWGQGTLVTVSS
VL: not shown
Consider B14, for which the binding result in experiment [1] and in experiment [3] was “no binding (tested: FOI >=10 = positive)” each time. In addition, the “Human primary T Cell Binding (FOI)” value in experiment [2] came to 0.694 FOI.

B15: mAb 103 (antibody, V domains shown)
VH: QVQLVQSGAEVMKPGASVKVSCKASGYTFTDFYIHWVRQAPGQGLEWMGWINPKSGNTRFAQKFQGRVTMTRDTSIATSYMELSRLRSDDTAVFYCARMGDLLALDYWGQGTLVTVSS
VL: EIVLTQSPATLSLSPGERATLSCRASQSVSSYLAWYQQKPGQAPRLLIYDASNRATGIPARFSGSGSGTDFTLTISSLEPEDFAVYYCQQRSNWYTFGQGTKLEIK
Regarding B15, the binding result in experiment [1] and in experiment [3] was “no binding (tested: FOI >=10 = positive)” in each case. Moreover, the “Human primary T Cell Binding (FOI)” value in experiment [2] was 0.526 FOI.

B16: mAb 104 (antibody, V domains shown)
VH: B15 VH with M12K, K63R, A77T
VL: not shown
For B16, the binding result in experiment [1] and in experiment [3] was “no binding (tested: FOI >=10 = positive)” each time. The “Human primary T Cell Binding (FOI)” value in experiment [2] amounted to 0.778 FOI.

B17: mAb 87 (antibody, V domains shown)
VH: QVQLVQSGAEMKKPGASVKVSCKASGYTFTDYYLHWVRRAPGHGLEWMGWIYPKSGRRNYAQHFQGRVTMTRDTSINTAYMELSSLRSDDSAVYFCVRLEQLVFDYWGQGTLVTVSS
VL: not shown
For B17, the binding result in experiment [1] and in experiment [3] was “no binding (tested: FOI >=10 = positive)” each time. Further, the “Human primary T Cell Binding (FOI)” value in experiment [2] was found to be 0.715 FOI.

B18: mAb 63 (antibody, V domains shown)
VH: QVQLVQSGAEVRKPGASVKVSCKASGYTFTGNHMHWVRQAPGQGLEWMGWINPKSGRTNFAQNFQGRVTMTRDTSISTAFMELSRLRSDDTAVYYCARMGDLLLFDFWGQGTLVTVSS
VL: not shown
Take B18: the binding result in experiment [1] and in experiment [3] was “no binding (tested: FOI >=10 = positive)” each time. For the same molecule, the “Human primary T Cell Binding (FOI)” value in experiment [2] was 0.842 FOI.
